The values that follow come from the nanobody polyreactivity screen of Harvey et al. (2022).

This data set in a line: yeast display, Sf9 membrane polyspecificity reagent, FACS + sequencing; frameworks hold sequencing errors. In short, it runs like this: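 Synthetic nanobody libraries on Saccharomyces cerevisiae BJ5465 were galactose-induced for 36–48 hours, stained 1 hour at 4 °C with 10% biotinylated, detergent-solubilized Sf9 membrane reagent and enriched on streptavidin microbeads. FACS then separated cells into low and high (top ~1%) gates by anti-HA (expression) and streptavidin (reagent binding) fluorescence. Genes were colony-PCR amplified, MiSeq 2 × 250 sequenced and CDR-length filtered. A clone's polyreactivity label is that of its gate of origin.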
On to “QVQLVESGGGLVQAGGSLRLSCAASGYIFYGYAMGWYRQAHGKERELVAAITVRGGSTYYADSVKGRFTISRDNAKNTVYLQMNSLNPEDTAVYYWAAAPQFTVGVGYWGQGTQVTVSS”, for which the “polyreactivity (PSR sort gate)” value was “low polyreactivity”.

As for “QVQLVESGGGLVQAGGSLRLSCAASGYIFYGYDMGWYRQAQGKERDLVAGITYSGGGGTHYADSVKGRFTISRDNAKNTVYLQMNSLKPEDTAVYYCAKADPQLNRNYYSYGMDYWGQGTQVTVSS”, the “polyreactivity (PSR sort gate)” value is “low polyreactivity”.

For the sequence “QVQLVESGGGLVQAGGSLRLSCAASGYIFYYNGMGWYRQAPGKERELVAVISRRGGSTYYADSVKGRFTISRDNAKNTVYLQMNSLKPEDTAVYYCNARARSSRTYKYDYWGQGTQVTVSS”, the “polyreactivity (PSR sort gate)” value is reported as “high polyreactivity”.

On to “QVQLVESGGGLVQAGGSLRLSCAASGYIFYYYAMGWYRQAPGKERELVAAISSGGSTSYADSVKGRFTISRDNAKNTVYLQMNSLKPEDTAVYYCAAYKPWYVGLYPWYDYWGQGTQVTVSS”, for which the “polyreactivity (PSR sort gate)” value is on record as “low polyreactivity”.

Turning to “QVQLVESGGGLVQAGGSLRLSCAASGYIIDVNTMGWYRPAPGKDRELVAAITSGGTTYYADSVKGRFTISRDNAKNTVYLQMNSLKPEDTAAYYCAALWSRRRSRPSFDYWGQGTQVTVSS”, the “polyreactivity (PSR sort gate)” value was “high polyreactivity”.

In the case of “QVQLVESGGGLVQAGGSLRLSCAASGYIIGRYVMGWYRQAPGKERELVAAITASGGSTYYADSVKGRFTISRDNAKNTVYLQMNSLKPEDTAVYYCAAPTYGRFLRNDYWGQGTQVTVSS”, the “polyreactivity (PSR sort gate)” value is given as “high polyreactivity”.

For the sequence “QVQLVESGGGLVQAGGSLRLSCAASGYIIWSYAMGWYRQAPGKERELVAGISYSGGSTYYADSVKGRFTISRDNAKNTVYLQMNSLKPEDTAVFYCAALRRGYVPFGYWGQGTQVTVSS”, the “polyreactivity (PSR sort gate)” value is “high polyreactivity”.

As for “QVQLVESGGGLVQAGGSLRLSCAASGYILGRYAMGWSRQAPGNERELVAAITSGASTYYADSVKGRFTISRDNAKNTVYLQMNSLKPEDTAVYYCARVNGAKQGGEYDYWGQGTQVTVSS”, the “polyreactivity (PSR sort gate)” value was “high polyreactivity”.

With “QVQLVESGGGLVQAGGSLRLSCAASGYILRSNAMGWYRQAPGKEREFVAAITYSGGSTYYADSVKGRFTISRDNAKNTVYFQRNSLKPEATAVYSCSKTTRYRRGYGYWGQGTEVTVSS”, the “polyreactivity (PSR sort gate)” value is given as “low polyreactivity”.

Regarding “QVQLVESGGGLVQAGGSLRLSCAASGYILTHYAMGWYRQAPGKERELVAAITRVGNTNYADSVKGRFTISRDNAKNTVYLQMNSLKPEDTAVYYCAADGVASLFGDPPTEFDYWGQGTQVTVSS”, the “polyreactivity (PSR sort gate)” value is recorded as “low polyreactivity”.

Take “QVQLVESGGGLVQAGGSLRLSCAASGYILYGNTMGWYRQAPGKERELVAAISGGGSTNYADSVKGRFTISRDNAKNTVYLQMNSLKPEETAVYYCAVDVKIGTDFIGVVIPGDYWGQGTQVTVSS”: the “polyreactivity (PSR sort gate)” value is recorded as “low polyreactivity”.

On to “QVQLVESGGGLVQAGGSLRLSCAASGYIYRYNAMGWYRQAPGKEREFVASISQRGGSTYYADSVKGRFTISRDNAKNTVYLQMNSLKPEDTAVYYCAARLGYYSYEYNYWGQGTQVTVSS”, for which the “polyreactivity (PSR sort gate)” value was “high polyreactivity”.

In the case of “QVQLVESGGGLVQAGGSLRLSCAASGYLFSYYAMGWSRQAPGKERELVATIDWGGGSTYYADSVKGRFTISRDNAKNTVYLQMNSLKPEDTGVYYCSKDYYITKYGYRYDSWGQGTQVTVSS”, the “polyreactivity (PSR sort gate)” value is listed as “low polyreactivity”.

In the case of “QVQLVESGGGLVQAGGSLRLSCAASGYNFENNVMGWYRQAPGKERELVAVISWNGGRTYYADSVKGRFTISRDNAKNTVYLQMNSLKPEDTAVYYCNDQGYFWSESIVYDYWGQGTQVTVSS”, the “polyreactivity (PSR sort gate)” value is “low polyreactivity”.

Turning to “QVQLVESGGGLVQAGGSLRLSCAASGYNFIVYTMGWYRQAPGKERELVAAISSGGITDYADSVKGRFTISRDNAKNTVYLQMNSLKPEDTAVYYWGQGTQVTVSS”, the “polyreactivity (PSR sort gate)” value is on record as “low polyreactivity”.

For “QVQLVESGGGLVQAGGSLRLSCAASGYNFPLYSMGWYTQAPGKERELVADINIGGASTYYADSVKGRFTISRDNAKNTVYLQMNSLKPEDTAVYDCAKEYFDGYFPTFDYDYWGKGTQVTVSS”, the “polyreactivity (PSR sort gate)” value is “low polyreactivity”.

In the case of “QVQLVESGGGLVQAGGSLRLSCAASGYSLYANAKGWSRQAPGKERELVASITFGDDSTYYADSVKGRFTISRDNAKNTVDLQMNSLKPEDTAVYYCNADHKVEVEDDYCGQGTQVTVSS”, the “polyreactivity (PSR sort gate)” value was “low polyreactivity”.

With “QVQLVESGGGLVQAGGSLRLSCAASGYTFAGNAMGWYRQAPGKERELVAAISRSGGRTYYADSVKGRFTISRDNAKNTVYLQMNSLKPEDTAVYYCAAYGYKYDYWGQGTQVTVSS”, the “polyreactivity (PSR sort gate)” value was “high polyreactivity”.

Regarding “QVQLVESGGGLVQAGGSLRLSCAASGYTFASYDMGWYRQAPGKERELVAAIDWSGGSTYYADSVKGRFTISRDNAKNTVYLQMNSLKPEDTAVYYCAAERPWTYGSDGMDYWGQGTQVTVSS”, the “polyreactivity (PSR sort gate)” value was “low polyreactivity”.

On to “QVQLVESGGGLVQAGGSLRLSCAASGYTFDVYAMGWYRQAPGTERELVAAISDSGGSTYYADSVKGRFTISRDNAKNTVYLQMNSLKPEDTAVYFCAAGYDYFYAIVSPSEYDYWGQGTQVTVSS”, for which the “polyreactivity (PSR sort gate)” value is reported as “low polyreactivity”.

For “QVQLVESGGGLVQAGGSLRLSCAASGYTFDYNAMGWYRQAPGKEREFVATITASGDSTYYADSVKGRFTISRDNAKNTVYLQMNSLKPEDTAVYYCATEKRDVYFTAKYDYWGQGTQVTVSS”, the “polyreactivity (PSR sort gate)” value is recorded as “low polyreactivity”.

As for “QVQLVESGGGLVQAGGSLRLSCAASGYTFESYTMGWYRQAPGKEREFVAVISSSDTSTSYADSVKGRFTISRDNAKNTFYLQMNSLKPVDTAVYYCAAYSSPYYITYYWYNYDYWGQGTQVTVSS”, the “polyreactivity (PSR sort gate)” value is recorded as “low polyreactivity”.

For “QVQLVESGGGLVQAGGSLRLSCAASGYTFFLNVMGWYRQAAGKEWELVAAISYSGGSTNYADSVKGRFTISRDNAKNTVYLQMNSLKPEDTAVYYCAVTTYSGLYGFEYWGQGTQVTVSS”, the “polyreactivity (PSR sort gate)” value is “low polyreactivity”.

As to “QVQLVESGGGLVQAGGSLRLSCAASGYTFGFYAMGWYRQAPGKERELVAAISSSGVSTSYADSVKGRFTISRDNAKNTVYLHMNSLKPEDNAVYYCNAPSYYYAYDYWGQGTQVTVSS”, the “polyreactivity (PSR sort gate)” value is reported as “high polyreactivity”.

Consider “QVQLVESGGGLVQAGGSLRLSCAASGYTFGPYAMGWYRQAPGKERELVAAITTRGGSTYYADSVKGRFTISRDNAKNTVYLQMNSLKPEDTAVYSCAAVVNSKSIQRVVRYYYWGQGTQVTVSS”, for which the “polyreactivity (PSR sort gate)” value is “high polyreactivity”.

In the case of “QVQLVESGGGLVQAGGSLRLSCAASGYTFGSSTMGWYRPAAGTERELVAAISNRGGPYYADAVKGRFTISRDNAKNTVYLQMNSLTPEDTAVYYCAVARRCGYDYWGQGTQVTVSS”, the “polyreactivity (PSR sort gate)” value is recorded as “high polyreactivity”.

In the case of “QVQLVESGGGLVQAGGSLRLSCAASGYTFGSYAMGWYRQAPGTERELVAAIRGSGGSTYYADSVKGRFTISRDNAKNTVYLQLNSLKPEDTAVYYGATSVRRGGRQLYNYWGQGTQVTVSS”, the “polyreactivity (PSR sort gate)” value was “high polyreactivity”.

Consider “QVQLVESGGGLVQAGGSLRLSCAASGYTFGYNARGWYRQAPGKERELVANITWRGGSTNYADSVKGRFTISRDNAKNTVYLQMNSLKPEDTAVYYCAADRPWYYGRYYYWGQGTQVTVSS”, for which the “polyreactivity (PSR sort gate)” value was “high polyreactivity”.

Consider “QVQLVESGGGLVQAGGSLRLSCAASGYTFGYNVMGWYRQAPGKERELVAVISSGGTTYYADSVKGRFTISRDNAKNTVYLQMNSLKPEDTAVYYCNKRSAYKYRTHYGYYYWGQGTQVTVSS”, for which the “polyreactivity (PSR sort gate)” value is given as “high polyreactivity”.

“QVQLVESGGGLVQAGGSLRLSCAASGYTFIVNAIGWYRQAPGKERQLVAAISRSGSSTRSADSVKWRFTISRDNAKNTVYLLMNRLKPEDTSVYYCAADLYSSEGRYYFWGQGTQVTVSS”: the “polyreactivity (PSR sort gate)” value is recorded as “high polyreactivity”.

On to “QVQLVESGGGLVQAGGSLRLSCAASGYTFIVNAMGWYRQAPGKERELVAAISRSGSSTRYADSVKWRFTISRDNAKNTVYLQMNSLKPEDTAVYYCGADLYSSEGRYYYWGQGTQVTVST”, for which the “polyreactivity (PSR sort gate)” value was “high polyreactivity”.

As for “QVQLVESGGGLVQAGGSLRLSCAASGYTFKLYAMVWSRQAPGKERELVAAIRRGGTTNYADSVNGRFTISRDNSKNTVYFQMNSLKPADTAVYYCAADGWYPGFYYPYTEFDYWGQGTQVTVSS”, the “polyreactivity (PSR sort gate)” value is recorded as “high polyreactivity”.

Turning to “QVQLVESGGGLVQAGGSLRLSCAASGYTFKRYAMGWSRQAPGKERELVAAISSSGSSTYYADSVKGRFTISRDNAKNTVYLQMNSLKPEDTAVYYCAAVYRYGYWGQGTQVTVSS”, the “polyreactivity (PSR sort gate)” value is given as “high polyreactivity”.

As to “QVQLVESGGGLVQAGGSLRLSCAASGYTFKRYAMGWYRQPPGKERELVAAITSRGGNTYYADSVKGRFTISRDNAKNTVYLQMNSLKPEDTAVYYCAVGGWSAYHLSQMYYWGQGTQVTVSS”, the “polyreactivity (PSR sort gate)” value is reported as “high polyreactivity”.

On to “QVQLVESGGGLVQAGGSLRLSCAASGYTFKTNDMGRYRQAPGKEREFVAAIDSGGNTYYADSVKGRFTISRDNAKNTVYLQMNSVKPEDTAVYYCGAYRDYQYDYWGQGTQVTVSS”, for which the “polyreactivity (PSR sort gate)” value is listed as “low polyreactivity”.

As for “QVQLVESGGGLVQAGGSLRLSCAASGYTFKTYAMGWYIQAPGKERELVAAISGSGGSTYYADSVMGRFTISRDNAKNTVYLQLKSLKPEDTEVYYCAATNWWGTEYDYWGQGTQVTVSS”, the “polyreactivity (PSR sort gate)” value is “high polyreactivity”.

For the sequence “QVQLVESGGGLVQAGGSLRLSCAASGYTFLGYAMGWYRQAPGKERELVAAIRRSGGRTYYADSVKGRFTISRDNAKNTVYLQMNSLKPEDTAVYYCAKGYVGEYDYWGQGTQVTVSS”, the “polyreactivity (PSR sort gate)” value is “high polyreactivity”.

Consider “QVQLVESGGGLVQAGGSLRLSCAASGYTFNKNTMGWYRQAPGKERELVAAISSSGGRTYYADSVKGRFTISRDNAKNTVYLQMNSLKPEDTAVYYCAARGYFKIHEYDYWGQGTQVTVSS”, for which the “polyreactivity (PSR sort gate)” value is “high polyreactivity”.

For the sequence “QVQLVESGGGLVQAGGSLRLSCAASGYTFPLYALGWYRQAPGKERELVADINIGGASTYYADSVKGRFTISRDNAKNTVYLQMNSLKPEDTAVYYCAKEYYDGFFPTFDYDYWGQVTQVTVSS”, the “polyreactivity (PSR sort gate)” value is “low polyreactivity”.

Regarding “QVQLVESGGGLVQAGGSLRLSCAASGYTFPLYAMGWYRQAPGKERELVADINIGGASTYYADSVKGRFTISRDNAKNTVYLQKNSLKPEDTAVYYCAKEYYDGYFPTFDSDYWGQGTQVTVSS”, the “polyreactivity (PSR sort gate)” value is listed as “low polyreactivity”.

Regarding “QVQLVESGGGLVQAGGSLRLSCAASGYTFQPYTMGWYRQAPGKERELVAAISKSGTRTYYADSVKGRFTISRDNEKNTVYLQMNSLKPEDTAVYYCAARYTGFLFDYWGQGTQVTVSS”, the “polyreactivity (PSR sort gate)” value is reported as “high polyreactivity”.
